Test results published in article PMC2561067 (2008).

B1: HWTX-XI (protein)
chain: IDTCRLPSDRGRCKASFERWYFNGRTCAKFIYGGCGGNGNKFPTQEACMKRCAKA
B2: trypsin (protein)
chain: SSGTSYPDVLKCLKAPILSDSSCKSAYPGQITSNMFCAGYLEGGKDSCQGDSGGPVVCSGKLQGIVSWGSGCAQKNKPGVYTKVCNYVSWIKQTIASN

Tests used:
trypsin = target: B2; assay: ITC
BPTI = BPTI (Bos taurus, UniProt P00974); assay: ITC

Binder | Kd (trypsin) [nM] | Kd (BPTI) [nM]
B1 | 0.23 | –
B2 | – | 6.57
